This note sets out measurements from PMC3960220, “1,2-β-Oligoglucan Phosphorylase from Listeria innocua” (PLoS ONE, 2014).

This series relates to O=P(O)(O)O[C@H]1O[C@H](CO)[C@@H](O)[C@H](O)[C@H]1O. The series can be described thus: phosphate release, Lowry and Lopez molybdate method, A700. The series is classed as biochemical, Listeria innocua. To be noted: synthetic reaction (donor, up to 10 mM), co-substrate 10 mM Sop2, 100 mM MOPS-NaOH pH 7.5, 30°C.

From the text: phosphate release, Lowry and Lopez molybdate method, A700 on Lin1839r (recombinant Lin1839 protein; 1,2-β-oligoglucan phosphorylase)

In the case of “Lin1839r (recombinant Lin1839 protein; 1,2-β-oligoglucan phosphorylase) (Listeria innocua Clip11262; T2A)”, the Km (commonly the concentration of substrate that gives half-maximal velocity) came to 1200 ± 200 µM; the kcat – broadly, the maximal rate divided by the concentration of active sites – came to 43 ± 2 s⁻¹; the specificity constant (kcat/Km) – broadly, the second-order rate constant that governs catalysis at low substrate concentration – was determined as 34000 ± 4000 M⁻¹ s⁻¹.
